Target: T1, 6× His-tagged SMAD4 (UniProt Q13485 1-552)
T1 construct: SMAD4; also called 6× His-SMAD4; source: purified from bacterial culture
T1 sequence (looked up): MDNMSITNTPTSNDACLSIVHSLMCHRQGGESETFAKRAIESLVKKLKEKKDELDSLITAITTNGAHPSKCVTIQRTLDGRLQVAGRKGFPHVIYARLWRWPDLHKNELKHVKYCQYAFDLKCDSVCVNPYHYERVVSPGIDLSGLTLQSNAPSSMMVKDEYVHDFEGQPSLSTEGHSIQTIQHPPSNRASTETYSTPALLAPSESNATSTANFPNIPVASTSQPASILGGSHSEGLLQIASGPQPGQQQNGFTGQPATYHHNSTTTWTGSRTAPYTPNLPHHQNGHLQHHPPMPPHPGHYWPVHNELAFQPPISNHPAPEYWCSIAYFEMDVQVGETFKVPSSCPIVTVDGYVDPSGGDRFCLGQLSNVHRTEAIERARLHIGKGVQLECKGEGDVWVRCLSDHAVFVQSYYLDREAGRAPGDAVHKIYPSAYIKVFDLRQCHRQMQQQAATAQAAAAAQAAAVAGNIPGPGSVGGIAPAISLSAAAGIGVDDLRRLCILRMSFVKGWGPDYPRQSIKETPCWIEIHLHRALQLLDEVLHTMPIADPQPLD
Assay: pull-down; 1 µg GST-SIRT7 on Glutathione-Sepharose 4B, incubated with 6× His-SMAD4 for 2 h at 4 °C in 120 mM KCl, 20 mM Tris-HCl pH 7.9, 5 mM MgCl2, 0.2 mM EDTA, 10% glycerol, 0.2% NP-40; immunoblot
Details: both partners purified

B1: GST-SIRT7 (enzyme, UniProt Q9NRC8 1-400, looked up)
chain: MAAGGLSRSERKAAERVRRLREEQQRERLRQVSRILRKAAAERSAEEGRLLAESADLVTELQGRSRRREGLKRRQEEVCDDPEELRGKVRELASAVRNAKYLVVYTGAGISTAASIPDYRGPNGVWTLLQKGRSVSAADLSEAEPTLTHMSITRLHEQKLVQHVVSQNCDGLHLRSGLPRTAISELHGNMYIEVCTSCVPNREYVRVFDVTERTALHRHQTGRTCHKCGTQLRDTIVHFGERGTLGQPLNWEAATEAASRADTILCLGSSLKVLKKYPRLWCMTKPPSRRPKLYIVNLQWTPKDDWAALKLHGKCDDVMRLLMAELGLEIPAYSRWQDPIFSLATPLRAGEEGSHSRKSLCRSREEAPPGDRGAPLSSAPILGGWFGRGCTKRTKRKKVT
notes: SIRT7; also called purified GST-SIRT7; recombinant GST-SIRT7; source: recombinant, purified
binding result: binds

Source: publication PMC5566498, “SIRT7 antagonizes TGF-β signaling and inhibits breast cancer metastasis” (Nature Communications, 2017)
